system: [H][C@]12[C@H](OC(=O)c3ccccc3)[C@]3(O)C[C@H](OC(=O)[C@H](O)[C@@H](NC(=O)c4ccccc4)c4ccccc4)C(C)=C([C@@H](O)C(=O)[C@]1(C)[C@@H](O[C@@H]1OC[C@@H](O)[C@H](O)[C@H]1O)C[C@@]1([H])OC[C@@]21OC(C)=O)C3(C)C; assay: HPLC of 10-deacetyltaxol formation, nonlinear Michaelis–Menten fit; format: biochemical, Lentinula edodes; conditions: XDT 0.039–5.0 mM; other conditions as described previously
Source text: HPLC of 10-deacetyltaxol formation, nonlinear Michaelis–Menten fit on LXYL-P1–2

| Substance | Km | Vmax [µM/min] | kcat [s⁻¹] | kcat/Km [M⁻¹ s⁻¹] |
| --- | --- | --- | --- | --- |
| LXYL-P1–2 (Lentinula edodes) | 0.51 (±0.01) mmol L^−1 | 8.16 | 4.89 ± 0.1 | 9670 ± 100 |
| LXYL-P1–2 (Lentinula edodes; T368E) | 0.16 (±0.01) mmol L^−1 | 3.84 | 2.3 ± 0.03 | 14200 ± 810 |
| LXYL-P1–2 (Lentinula edodes; S91D) | 0.17 (±0.01) mmol L^−1 | 3.15 | 1.89 ± 0.04 | 11300 ± 390 |

Reference: PMC6149855, “Improving the Catalytic Property of the Glycoside Hydrolase LXYL-P1–2 by Directed Evolution” (Molecules : A Journal of Synthetic Chemistry and Natural …, 2017)
